Test [1] deals with Chinese Hamster Ovary CHO-K1 (CCL-61) host cell. Kind of test: Bio-Layer Interferometry (Octet) analysis of denosumab expression in supernatants of cell pools selected with GS markers. In kind it is cell-based. The settings on record: 50 μM MSX. How it is done:
Vector design: Nearly all selectable marker currently used in GS system is Cricetulus griseus-derived GS.
(§1) After random integration, GS expression in each individual cell was evaluated by monitoring UnaG level using flow cytometry. Denosumab here served as the secreted reporter for assessing titers using selectable glutamine synthetase markers from different species. The vectors differed from one another by the GS-coding sequences, which were derived from Chinese hamster (Cricetulus griseus), koala (Phascolarctos cinerecus), vesper bat (Pipistrellus kuhlii), gerbil (Meriones unguiculatus), ostrich (Struthio camelus australis), junglefowl (Gallus gallus), pigeon (Columbia Livia), and snake (Pseudonaja textilis), respectively.
(§2) Electroporation and cell screening: Expression vectors described above were first linearized by the restriction endonuclease Pvul (there was one Pvul site in the ampicillin resistant gene). Then linearized vectors were introduced into the host cell using cell electroporator (Lonza Nuleofector 2b). The host cell was derived from ATCC wild-type Chinese Hamster Ovary CHO-K1 (CCL-61) and adapted to serum-free suspension culture at Shanghai ZhenGe Biotech Co. Ltd. 24 hours post electroporation, cell pools were plated into culture flasks or 96-well plates (approximately 1, 200 cells/well, 300 wells per condition) in the absence of or presence of MSX (50 μM).
For orientation: BLI is a label-free optical method that tracks binding on a fibre tip over time.

For test [2] the test system is unchanged. Kind of test: Flow cytometry analysis of GS expression via UnaG fluorescence in electroporated cell pools. Type of test: cell-based. The settings on record: about 3 weeks post-seeding, MSX selection, FIGS. 3A-3B.
From the text: Vector design: Nearly all selectable marker currently used in GS system is Cricetulus griseus-derived GS. To investigate whether the GS from other species further improve titer or screening efficiency, a set of vectors were designed as described below: • a sequence coding for an eel green fluorescent protein UnaG, a 2A self-cleaving peptide and a glutamine synthetase, placed under the control of the SV40 promoter; • two expression cassettes, in which the sequences coding for the heavy chain and light chain of a human anti-RANKL antibody denosumab were placed under the control of CMV promoters, respectively; • a sequence coding for a protein conferring resistance to ampicillin, for use in prokaryotic cells; and • a prokaryotic origin of replication.
as §1, with “The 2A self-cleaving peptide allowed relatively equal molar expression of the two products separated by it, namely, the green fluorescent protein UnaG and glutamine synthetase. After” for “After”
as §2
Flow cytometry analysis of GS expression: About 3 weeks post-seeding, cell pools electroporated with GS gene from indicated species were analyzed using Attune NxT flow cytometer (FIGS. 3A-3C). […] As shown, when the GS from Chinese Hamster was used as the selectable marker, most tested cells (>98%) remained UnaG “negative” in the presence of the MSX, indicating low selection efficiency.
In general terms: Flow cytometry measures light scatter and fluorescence of single cells or particles in a stream.

B1: vesper bat GS: Pipistrellus kuhlii glutamine synthetase, SEQ ID NO: 8 (nucleotide SEQ ID NO: 17), used as selectable marker (protein, listed as Pipistrellus kuhlii)
chain: MSTSASSQLNKGIKQMYMSLPQGDKVLAMYIWIDGTGEGLRCKTRTLDSEPKSIDELPEWNFDGSSTMQSEGSNSDMYLIPVAMFRDPFRKDPNKLIFCEVFKYNHKPAETNLRYTCKRIMDMVSNQHPWFGMEQEYTLMGTDGHPFGWPSNGFPGPQGPYYCGVGADRAYGRDIVEAHYRACLYAGIKIGGTNAEVMPAQWEFQIGPCEGIEMGDHLWVARFILHRVCEDFGVIATFDPKPIPGNWNGAGCHTNFSTKAMREENGLKYIEESIERLSKRHQYHIRAYDPKGGQDNARRLTGFHETSNINDFSAGVANRSASIRIPRAVGQEKKGYFEDRRPSANCDPFAVTEALIRTCLLNETGDEPFQYKN
modifications: Vesper bat GS
As for B1, the “pools expressed detectable denosumab (>0.125 ug/mL)” value in test [1] (Day 20, among 300 seeded pools in 96-well plates, GS used as selectable marker) amounted to 94.0%. Also, the “median expression value of denosumab of positive pools” value in test [1] (Day 20, positive pools (>0.125 ug/mL), Octet ProA biosensor) came out at 3.39 µg/mL. Also, the “UnaG expression of cells (selection efficiency)” value in test [2] is on record as “significant amounts of cells showed positive UnaG expression”.

The values above are taken from US20260226524A1, “GLUTAMINE SYNTHETASE MARKER FOR RECOMBINANT EXPRESSION” (priority 2023, published 2026).
